# Laboratory results from IntAct's records for PubMed 24275654.
# How the values were obtained:
# [1] = biological target: tbb4a_human TUBB4A (UniProt P04350)
# [2] = biological target: tbb5_human TUBB (UniProt P07437)
# [3] = biological target: tbb6_human TUBB6 (UniProt Q9BUF5)
# Sequence of UniProt Q9BUF5 (Q9BUF5 whole entry): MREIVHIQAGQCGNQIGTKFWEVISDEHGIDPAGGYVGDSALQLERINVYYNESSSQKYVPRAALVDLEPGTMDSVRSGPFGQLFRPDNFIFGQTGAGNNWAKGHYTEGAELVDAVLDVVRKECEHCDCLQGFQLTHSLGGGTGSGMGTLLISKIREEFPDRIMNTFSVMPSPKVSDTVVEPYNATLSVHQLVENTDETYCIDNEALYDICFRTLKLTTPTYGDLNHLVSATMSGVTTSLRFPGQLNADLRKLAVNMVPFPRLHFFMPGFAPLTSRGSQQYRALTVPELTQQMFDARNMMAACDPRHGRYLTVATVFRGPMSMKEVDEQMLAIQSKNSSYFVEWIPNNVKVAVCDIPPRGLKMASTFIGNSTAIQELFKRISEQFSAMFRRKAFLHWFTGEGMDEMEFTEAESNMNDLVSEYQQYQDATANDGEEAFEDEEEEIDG
# Sequence of UniProt P07437 (P07437 whole entry): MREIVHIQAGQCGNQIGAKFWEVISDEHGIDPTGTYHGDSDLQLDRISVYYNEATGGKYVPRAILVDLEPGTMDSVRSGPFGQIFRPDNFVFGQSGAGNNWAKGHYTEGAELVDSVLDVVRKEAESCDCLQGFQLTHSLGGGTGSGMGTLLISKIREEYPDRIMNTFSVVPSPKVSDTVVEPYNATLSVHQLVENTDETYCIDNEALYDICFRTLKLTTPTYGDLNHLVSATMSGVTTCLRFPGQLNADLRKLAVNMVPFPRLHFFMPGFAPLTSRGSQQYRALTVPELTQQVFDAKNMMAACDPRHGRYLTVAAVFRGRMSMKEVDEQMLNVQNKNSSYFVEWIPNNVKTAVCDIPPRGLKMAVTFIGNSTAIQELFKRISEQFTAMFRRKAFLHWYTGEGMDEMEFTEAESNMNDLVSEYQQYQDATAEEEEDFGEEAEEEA
# Sequence of UniProt P04350 (P04350 whole entry): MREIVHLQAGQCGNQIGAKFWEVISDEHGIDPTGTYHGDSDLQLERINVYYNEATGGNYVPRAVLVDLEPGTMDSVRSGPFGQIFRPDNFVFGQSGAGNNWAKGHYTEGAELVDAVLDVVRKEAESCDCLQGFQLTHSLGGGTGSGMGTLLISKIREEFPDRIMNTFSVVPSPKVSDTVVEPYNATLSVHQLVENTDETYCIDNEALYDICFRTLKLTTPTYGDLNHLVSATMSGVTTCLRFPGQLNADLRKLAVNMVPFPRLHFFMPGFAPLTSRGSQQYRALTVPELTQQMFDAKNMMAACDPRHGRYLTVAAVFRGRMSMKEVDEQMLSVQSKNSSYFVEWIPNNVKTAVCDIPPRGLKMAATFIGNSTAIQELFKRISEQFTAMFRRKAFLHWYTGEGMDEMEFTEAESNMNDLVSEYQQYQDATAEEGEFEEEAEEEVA
effect of a mutation on the interaction [1],effect of a mutation on the interaction [2],effect of a mutation on the interaction [3],Substance
increasing interaction,,,"Leucine-rich repeat serine/threonine-protein kinase 2 (Homo sapiens), Q5S007 T1343A"
decreasing interaction,,,"Leucine-rich repeat serine/threonine-protein kinase 2 (Homo sapiens), Q5S007 T1491D"
decreasing interaction,decreasing interaction,,"Leucine-rich repeat serine/threonine-protein kinase 2 (Homo sapiens), Q5S007 R1441G"

# Further lines, the substance ahead of its results:
Substance,effect of a mutation on the interaction [1],effect of a mutation on the interaction [2],effect of a mutation on the interaction [3]
"Leucine-rich repeat serine/threonine-protein kinase 2 (Homo sapiens), Q5S007 T1491A",increasing interaction,,
"Leucine-rich repeat serine/threonine-protein kinase 2 (Homo sapiens), Q5S007 R1441C",increasing interaction,increasing interaction,
"Leucine-rich repeat serine/threonine-protein kinase 2 (Homo sapiens), Q5S007 R1441H",decreasing interaction,decreasing interaction,
"Leucine-rich repeat serine/threonine-protein kinase 2 (Homo sapiens), Q5S007 T1343D",decreasing interaction,decreasing interaction,
"Leucine-rich repeat serine/threonine-protein kinase 2 (Homo sapiens), Q5S007 K1347A",disrupting interaction,disrupting interaction,disrupting interaction
